According to patent US20240150491A1 (Genentech, published 2024):

T1: human KLK5 (human, UniProt Q9Y337 67-293)
T1 sequence: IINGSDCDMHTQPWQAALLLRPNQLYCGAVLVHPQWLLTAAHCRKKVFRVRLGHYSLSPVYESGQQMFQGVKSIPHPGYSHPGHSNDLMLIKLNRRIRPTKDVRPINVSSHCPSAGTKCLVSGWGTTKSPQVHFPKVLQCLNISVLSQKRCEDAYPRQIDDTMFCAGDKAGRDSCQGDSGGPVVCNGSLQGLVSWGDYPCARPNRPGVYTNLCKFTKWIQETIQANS

T2: cynomolgus monkey KLK5 (cynomolgus monkey, UniProt Q9Y337 67-293 (human entry))
T2 chain: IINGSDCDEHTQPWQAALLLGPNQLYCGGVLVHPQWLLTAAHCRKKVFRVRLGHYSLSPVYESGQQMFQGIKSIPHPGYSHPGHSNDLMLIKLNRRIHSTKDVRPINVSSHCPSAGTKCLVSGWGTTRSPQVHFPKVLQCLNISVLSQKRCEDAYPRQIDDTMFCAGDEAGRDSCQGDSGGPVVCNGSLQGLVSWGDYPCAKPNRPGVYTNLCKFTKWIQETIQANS


Columns and labels:
Experiment in all cases: cell-based or functional assay
human KLK5 = target: T1, human KLK5
[1] = target: T3, human KLK7 (SEQ ID NO: 4 plus a C-terminal FLAG tag) (human, UniProt P49862 30-253)
[2] = target: T4, cyno KLK7 (SEQ ID NO: 6 plus a C-terminal FLAG tag) (cynomolgus monkey, UniProt P49862 30-253 (human entry))
cynomolgus monkey KLK5 = target: T2, cynomolgus monkey KLK5
[3] = target: T3, human KLK7 (SEQ ID NO: 4 plus a …); remark: listed apart in the source
[4] = target: T4, cyno KLK7 (SEQ ID NO: 6 plus a …); remark: listed apart in the source

T4 sequence (P49862 other isoform, or with tags, fused parts or gaps): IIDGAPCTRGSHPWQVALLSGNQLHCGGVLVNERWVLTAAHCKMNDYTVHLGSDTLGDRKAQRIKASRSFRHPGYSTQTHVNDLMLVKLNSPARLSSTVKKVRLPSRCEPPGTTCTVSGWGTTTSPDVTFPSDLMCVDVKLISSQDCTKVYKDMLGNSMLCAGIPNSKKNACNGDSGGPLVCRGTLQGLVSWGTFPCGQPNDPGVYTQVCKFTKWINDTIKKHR
T3 sequence (P49862 30-253): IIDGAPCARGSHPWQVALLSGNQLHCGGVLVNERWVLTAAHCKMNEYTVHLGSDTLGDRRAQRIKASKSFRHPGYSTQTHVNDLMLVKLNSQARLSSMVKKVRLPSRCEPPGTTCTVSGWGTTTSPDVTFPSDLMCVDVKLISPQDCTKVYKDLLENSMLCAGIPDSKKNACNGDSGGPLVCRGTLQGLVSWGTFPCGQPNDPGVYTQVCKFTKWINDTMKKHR

| Binder | IC50, inhibition of KLK5 cleavage of Boc-Val-Pro-Arg-AMC (bivalency corrected) (human KLK5) [pM] | IC50, inhibition of KLK7 cleavage of Mca-RPKPVE-Nval-WRK(Dnp) (bivalency corrected) [1] [pM] | IC50, inhibition of KLK7 cleavage of Mca-RPKPVE-Nval-WRK(Dnp) (bivalency corrected) [2] [pM] | IC50, inhibition of KLK5 cleavage of Boc-Val-Pro-Arg-AMC (bivalency corrected) (cynomolgus monkey KLK5) [pM] | IC50, inhibition of KLK7 cleavage of MCA peptide substrate (bivalency not accounted for) [3] [pM] | IC50, inhibition of KLK7 cleavage of MCA peptide substrate (bivalency not accounted for) [4] [pM] |
| --- | --- | --- | --- | --- | --- | --- |
| hu.10C5VY.hu14H11c.L2H11 WT (bispecific antibody, human IgG1, kappa, N297G) heavy 1: not shown light 1: DIQMTQSPSSLSASVGDRVTITCLASEDIASSVSWYQKKPGKAPKLLIYGASNLESGVPSRFSGSGSGTDYTLTISSLQPEDFATYYCLGGYSYSSTGTAFGGGTKVEIKRTVAAPSVFIFPPSDEQLKSGTASVECLLNNFYPREAKVQWKVDNALQSGNSQESVTEQDSKDSTYSLSSTLTLSKADYEKHKVYACEVTHQGLSSPVTKSFNRGEC heavy 2: EVQLVESGGGLVQPGGSLRLSCAASGFSLSSYGVTWVRKAPGKGLEWIGYITSVYGVSYYASWAKSRSTISRDTSKNTVYLQMGSLRAEDMAVYYCARENPDYGYAYDAWGQGTTVTVSSASTKGPSVFPLAPSSKSTSGGTAALGCLVKDYFPEPVTVSWNSGALTSGVHTFPAVLQSSGLYSLESVVTVPSSSLGTQTYICNVNHKPSNTKVDKKVEPKSCDKTHTCPPCPAPELLGGPSVFLFPPKPKDTLMISRTPEVTCVVVDVSHEDPEVKFNWYVDGVEVHNAKTKPREEQYGSTYRVVSVLTVLHQDWLNGKEYKCKVSNKALPAPIEKTISKAKGQPREPQVYTLPPSREEMTKNQVSLSCAVKGFYPSDIAVEWESNGQPENNYKTTPPVLDSDGSFFLVSKLTVDKSRWQQGNVFSCSVMHEALHNHYTQKSLSLSPGK light 2: AIRMTQSPSSFSASTGDRVTITCQASESISNELSWYQEKPGKAPKLLIYYASTLASGVPSRFSGSGSGTDFTLTISSLQPEDFATYYCAQGYGSSGVENVFGGGTKVEIKRTVAAPSVFIFPPSDEQLKSGTASVKCLLNNFYPREAKVQWKVDNALQSGNSQESVTEQDSKDSTYSLSSTLTLSKADYEKHKVYACEVTHQGLSSPVTKSFNRGEC | 670 | 370 | 370 | 730 | – | – |
| 14H11 (antibody, V domains shown) VH: QSLEESGGDLVKPGASLTLTCTASGFSFSSSYYMCWVRQAPGKGLEWIASIYAGSSGAPYYAGWAKGRFTISKTSSTAVTLQMSSLTAADTATYFCAREGFAETGGYGYAAYFNLWGPGTLVTVSS VL: AIEMTQSPPSLSASVGETVRIRCLASEDIASSVSWYQQKPGKPPTLLIYGASNLESGVPPRFTGSGSGTDYTLTIGGVQAEDAATYYCLGGYSYSSTGTAFGAGTKVEIK | – | – | – | – | 110 | 150 |
| hu10C5VY (antibody, V domains shown) VH: EVQLVESGGGLVQPGGSLRLSCAASGFSLSSYGVTWVRQAPGKGLEWIGYITSVYGVSYYASWAKSRSTISRDTSKNTVYLQMGSLRAEDMAVYYCARENPDYGYAYDAWGQGTTVTVSS VL: AIRMTQSPSSFSASTGDRVTITCQASESISNELSWYQQKPGKAPKLLIYYASTLASGVPSRFSGSGSGTDFTLTISSLQPEDFATYYCAQGYGSSGVENVFGGGTKVEIK | 460 | > 10000 | > 10000 | 560 | – | – |

The remaining lines, values ahead:

| IC50, inhibition of KLK5 cleavage of Boc-Val-Pro-Arg-AMC (bivalency corrected) (human KLK5) [pM] | IC50, inhibition of KLK7 cleavage of Mca-RPKPVE-Nval-WRK(Dnp) (bivalency corrected) [1] [pM] | IC50, inhibition of KLK7 cleavage of Mca-RPKPVE-Nval-WRK(Dnp) (bivalency corrected) [2] [pM] | IC50, inhibition of KLK5 cleavage of Boc-Val-Pro-Arg-AMC (bivalency corrected) (cynomolgus monkey KLK5) [pM] | IC50, inhibition of KLK7 cleavage of MCA peptide substrate (bivalency not accounted for) [3] [pM] | IC50, inhibition of KLK7 cleavage of MCA peptide substrate (bivalency not accounted for) [4] [pM] | Binder |
| --- | --- | --- | --- | --- | --- | --- |
| 540 | 340 | 360 | 580 | – | – | hu.10C5VY.hu14H11c.L2H11 LS (bispecific antibody, human IgG1, kappa, N297G) heavy 1: EQQLVESGGGLIQPGGSLRLSCAASGFSFSSSYYMSWVREAPGKGLEWVSSIYAGSSGAPYYAGWAKGRFTISRDNSKNTLYLQMNSLRAEDTAVYYCAREGFAETGGYGYAAYFNLWGPGTLVTVSSASTKGPSVFPLAPSSKSTSGGTAALGCLVKDYFPEPVTVSWNSGALTSGVHTFPAVLQSSGLYSLKSVVTVPSSSLGTQTYICNVNHKPSNTKVDKKVEPKSCDKTHTCPPCPAPELLGGPSVFLFPPKPKDTLMISRTPEVTCVVVDVSHEDPEVKFNWYVDGVEVHNAKTKPREEQYGSTYRVVSVLTVLHQDWLNGKEYKCKVSNKALPAPIEKTISKAKGQPREPQVYTLPPSREEMTKNQVSLWCLVKGFYPSDIAVEWESNGQPENNYKTTPPVLDSDGSFFLYSKLTVDKSRWQQGNVFSCSVLHEALHSHYTQKSLSLSPGK light 1: DIQMTQSPSSLSASVGDRVTITCLASEDIASSVSWYQKKPGKAPKLLIYGASNLESGVPSRFSGSGSGTDYTLTISSLQPEDFATYYCLGGYSYSSTGTAFGGGTKVEIKRTVAAPSVFIFPPSDEQLKSGTASVECLLNNFYPREAKVQWKVDNALQSGNSQESVTEQDSKDSTYSLSSTLTLSKADYEKHKVYACEVTHQGLSSPVTKSFNRGEC heavy 2: EVQLVESGGGLVQPGGSLRLSCAASGFSLSSYGVTWVRKAPGKGLEWIGYITSVYGVSYYASWAKSRSTISRDTSKNTVYLQMGSLRAEDMAVYYCARENPDYGYAYDAWGQGTTVTVSSASTKGPSVFPLAPSSKSTSGGTAALGCLVKDYFPEPVTVSWNSGALTSGVHTFPAVLQSSGLYSLESVVTVPSSSLGTQTYICNVNHKPSNTKVDKKVEPKSCDKTHTCPPCPAPELLGGPSVFLFPPKPKDTLMISRTPEVTCVVVDVSHEDPEVKFNWYVDGVEVHNAKTKPREEQYGSTYRVVSVLTVLHQDWLNGKEYKCKVSNKALPAPIEKTISKAKGQPREPQVYTLPPSREEMTKNQVSLSCAVKGFYPSDIAVEWESNGQPENNYKTTPPVLDSDGSFFLVSKLTVDKSRWQQGNVFSCSVLHEALHSHYTQKSLSLSPGK light 2: AIRMTQSPSSFSASTGDRVTITCQASESISNELSWYQEKPGKAPKLLIYYASTLASGVPSRFSGSGSGTDFTLTISSLQPEDFATYYCAQGYGSSGVENVFGGGTKVEIKRTVAAPSVFIFPPSDEQLKSGTASVKCLLNNFYPREAKVQWKVDNALQSGNSQESVTEQDSKDSTYSLSSTLTLSKADYEKHKVYACEVTHQGLSSPVTKSFNRGEC |
| > 10000 | 290 | 290 | > 10000 | – | – | hu.14H11c.L2H11-hIgG1 (antibody, V domains shown) VH: EQQLVESGGGLIQPGGSLRLSCAASGFSFSSSYYMSWVRQAPGKGLEWVSSIYAGSSGAPYYAGWAKGRFTISRDNSKNTLYLQMNSLRAEDTAVYYCAREGFAETGGYGYAAYFNLWGPGTLVTVSS VL: DIQMTQSPSSLSASVGDRVTITCLASEDIASSVSWYQQKPGKAPKLLIYGASNLESGVPSRFSGSGSGTDYTLTISSLQPEDFATYYCLGGYSYSSTGTAFGGGTKVEIK |
